# Experimental data: FireProtDB (doi:10.1073/pnas.1507829112)
# Where “and” joins values, the source holds several entries; their conditions need not be identical. Identical values can stand only once.
# B1: G133D, Q6VS32 (parent)
# chain: CSSGGGGVAADIGAGLADALTAPLDHKDKSLQSLTLDQSVRKNEKLKLAAQGAEKTYGNGDSLNTGKLKNDKVSRFDFIRQIEVDGQLITLESGEFQIYKQDHSAVVALQIEKINNPDKIDSLINQRSFLVSGLGGEHTAFNQLPSGKAEYHGKAFSSDDPNGRLHYSIDFTKKQGYGRIEHLKTPEQNVELASAELKADEKSHAVILGDTRYGGEEKGTYHLALFGDRAQEIAGSATVKIREKVHEIGIAGKQ
# Variants of: B1
# Conditions: Neisseria meningitidis; pH 7; Thermal; DSC; PBS; whole UniProt chain shown
row,Variant,unfolding enthalpy (calorimetric)
1,CSSGGGGVAADIGAGLADALTAPLDHKDKSLQSLTLDQSVRKNEKLKLAAQGAEKTYGNGDSLNTGKLKNDKVSRFDFIRQIEVDGQLITLESGEFQIYKQDHSAVVALQIEKINNPDKIDSLINQRSFLVSDLGGEHTAFNQLPSGKAEYHGKAFSSDDPNGRLHYSIDFTKKQGYGRIEHLKTPEQNVELASAELKADEKSHAVILGDTRYGGEEKGTYHLALFGDRAQEIAGSATVKIREKVHEIGIAGKQ [G133D],96.8 kcal/mol and 96.1 kcal/mol
2,CSSGGGGVAADIGAGLADALTAPLDHKDKSLQSLTLDQSVRKNEKLKLAAQGAEKTYGNGDSLNTGKLKNDKVSRFDFIRQIEVDGQLITLESGEFQIYKQDHSAVVALQIEKINNPDKIDSLINQRSFRVSDLGGEHTAFNQLPSGKAEYHGKAFSSDDPNGRLHYSIDFTKKQGYGRIEHLKTPEQNVELASAELKADEKSHAVILGDTRYGGEEKGTYHLALFGDRAQEIAGSATVKIREKVHEIGIAGKQ [L130R G133D],56.3 kcal/mol and 94 kcal/mol
